Experimental data from patent US20220324969A1 (MYTHIC THERAPEUTICS, published 2022).

biological target: CD33 (Sino Biological, Cat #12238-H08H) (UniProt P20138 18-259); test: BLI, IgG captured on anti-human Fc sensor, 50 nM CD33, pH 7.4 vs pH 5.4
Sequence (P20138 18-259 limits assumed): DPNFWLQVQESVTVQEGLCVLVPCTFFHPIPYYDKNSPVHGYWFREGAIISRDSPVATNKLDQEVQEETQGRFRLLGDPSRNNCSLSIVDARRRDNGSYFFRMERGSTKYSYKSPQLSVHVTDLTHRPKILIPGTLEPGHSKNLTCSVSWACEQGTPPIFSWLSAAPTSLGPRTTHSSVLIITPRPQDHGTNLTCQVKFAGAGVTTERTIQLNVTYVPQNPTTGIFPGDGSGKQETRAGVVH

binding result | Binder
binds | MYT1218 (antibody, V domains shown, IgG; IMGN779 VH variant #6 (S31H)) VH: QVQLQQPGAEVVKPGASVKMSCKASGYTFTHYYIHWIKQTPGQGLEWVGVIYPGNDDISYNQKFQGKATLTADKSSTTAYMQLSSLTSEDSAVYYCAREVRLRYFDVWGQGTTVTVSS VL: EIVLTQSPGSLAVSPGERVTMSCKSSQSVFFSSSQKNYLAWYQQIPGQSPRLLIYWASTRESGVPDRFTGSGSGTDFTLTISSVQPEDLAIYYCHQYLSSRTFGQGTKLEIK
binds | MYT1220 (antibody, V domains shown, IgG; IMGN779 VH variant #8 (Y33H)) VH: QVQLQQPGAEVVKPGASVKMSCKASGYTFTSYHIHWIKQTPGQGLEWVGVIYPGNDDISYNQKFQGKATLTADKSSTTAYMQLSSLTSEDSAVYYCAREVRLRYFDVWGQGTTVTVSS VL: EIVLTQSPGSLAVSPGERVTMSCKSSQSVFFSSSQKNYLAWYQQIPGQSPRLLIYWASTRESGVPDRFTGSGSGTDFTLTISSVQPEDLAIYYCHQYLSSRTFGQGTKLEIK
binds | MYT1232 (antibody, V domains shown, IgG; IMGN779 VH variant #20 (S59H)) VH: QVQLQQPGAEVVKPGASVKMSCKASGYTFTSYYIHWIKQTPGQGLEWVGVIYPGNDDIHYNQKFQGKATLTADKSSTTAYMQLSSLTSEDSAVYYCAREVRLRYFDVWGQGTTVTVSS VL: EIVLTQSPGSLAVSPGERVTMSCKSSQSVFFSSSQKNYLAWYQQIPGQSPRLLIYWASTRESGVPDRFTGSGSGTDFTLTISSVQPEDLAIYYCHQYLSSRTFGQGTKLEIK
binds | MYT1229 (antibody, V domains shown, IgG; IMGN779 VH variant #17 (D56H)) VH: QVQLQQPGAEVVKPGASVKMSCKASGYTFTSYYIHWIKQTPGQGLEWVGVIYPGNHDISYNQKFQGKATLTADKSSTTAYMQLSSLTSEDSAVYYCAREVRLRYFDVWGQGTTVTVSS VL: EIVLTQSPGSLAVSPGERVTMSCKSSQSVFFSSSQKNYLAWYQQIPGQSPRLLIYWASTRESGVPDRFTGSGSGTDFTLTISSVQPEDLAIYYCHQYLSSRTFGQGTKLEIK
binds | MYT1223 (antibody, V domains shown, IgG; IMGN779 VH variant #11 (V50H)) VH: QVQLQQPGAEVVKPGASVKMSCKASGYTFTSYYIHWIKQTPGQGLEWVGHIYPGNDDISYNQKFQGKATLTADKSSTTAYMQLSSLTSEDSAVYYCAREVRLRYFDVWGQGTTVTVSS VL: EIVLTQSPGSLAVSPGERVTMSCKSSQSVFFSSSQKNYLAWYQQIPGQSPRLLIYWASTRESGVPDRFTGSGSGTDFTLTISSVQPEDLAIYYCHQYLSSRTFGQGTKLEIK
binds | MYT1237 (antibody, V domains shown, IgG; IMGN779 VH variant #25 (F64H)) VH: QVQLQQPGAEVVKPGASVKMSCKASGYTFTSYYIHWIKQTPGQGLEWVGVIYPGNDDISYNQKHQGKATLTADKSSTTAYMQLSSLTSEDSAVYYCAREVRLRYFDVWGQGTTVTVSS VL: EIVLTQSPGSLAVSPGERVTMSCKSSQSVFFSSSQKNYLAWYQQIPGQSPRLLIYWASTRESGVPDRFTGSGSGTDFTLTISSVQPEDLAIYYCHQYLSSRTFGQGTKLEIK
binds | MYT1222 (antibody, V domains shown, IgG; IMGN779 VH variant #10 (H35A)) VH: QVQLQQPGAEVVKPGASVKMSCKASGYTFTSYYIAWIKQTPGQGLEWVGVIYPGNDDISYNQKFQGKATLTADKSSTTAYMQLSSLTSEDSAVYYCAREVRLRYFDVWGQGTTVTVSS VL: EIVLTQSPGSLAVSPGERVTMSCKSSQSVFFSSSQKNYLAWYQQIPGQSPRLLIYWASTRESGVPDRFTGSGSGTDFTLTISSVQPEDLAIYYCHQYLSSRTFGQGTKLEIK
binds | MYT1226 (antibody, V domains shown, IgG; IMGN779 VH variant #14 (P53H)) VH: QVQLQQPGAEVVKPGASVKMSCKASGYTFTSYYIHWIKQTPGQGLEWVGVIYHGNDDISYNQKFQGKATLTADKSSTTAYMQLSSLTSEDSAVYYCAREVRLRYFDVWGQGTTVTVSS VL: EIVLTQSPGSLAVSPGERVTMSCKSSQSVFFSSSQKNYLAWYQQIPGQSPRLLIYWASTRESGVPDRFTGSGSGTDFTLTISSVQPEDLAIYYCHQYLSSRTFGQGTKLEIK
binds | MYT1233 (antibody, V domains shown, IgG; IMGN779 VH variant #21 (Y60H)) VH: QVQLQQPGAEVVKPGASVKMSCKASGYTFTSYYIHWIKQTPGQGLEWVGVIYPGNDDISHNQKFQGKATLTADKSSTTAYMQLSSLTSEDSAVYYCAREVRLRYFDVWGQGTTVTVSS VL: EIVLTQSPGSLAVSPGERVTMSCKSSQSVFFSSSQKNYLAWYQQIPGQSPRLLIYWASTRESGVPDRFTGSGSGTDFTLTISSVQPEDLAIYYCHQYLSSRTFGQGTKLEIK
binds | MYT1221 (antibody, V domains shown, IgG; IMGN779 VH variant #9 (I34H)) VH: QVQLQQPGAEVVKPGASVKMSCKASGYTFTSYYHHWIKQTPGQGLEWVGVIYPGNDDISYNQKFQGKATLTADKSSTTAYMQLSSLTSEDSAVYYCAREVRLRYFDVWGQGTTVTVSS VL: EIVLTQSPGSLAVSPGERVTMSCKSSQSVFFSSSQKNYLAWYQQIPGQSPRLLIYWASTRESGVPDRFTGSGSGTDFTLTISSVQPEDLAIYYCHQYLSSRTFGQGTKLEIK
binds | MYT1236 (antibody, V domains shown, IgG; IMGN779 VH variant #24 (K63H)) VH: QVQLQQPGAEVVKPGASVKMSCKASGYTFTSYYIHWIKQTPGQGLEWVGVIYPGNDDISYNQHFQGKATLTADKSSTTAYMQLSSLTSEDSAVYYCAREVRLRYFDVWGQGTTVTVSS VL: EIVLTQSPGSLAVSPGERVTMSCKSSQSVFFSSSQKNYLAWYQQIPGQSPRLLIYWASTRESGVPDRFTGSGSGTDFTLTISSVQPEDLAIYYCHQYLSSRTFGQGTKLEIK
binds | MYT1230 (antibody, V domains shown, IgG; IMGN779 VH variant #18 (D57H)) VH: QVQLQQPGAEVVKPGASVKMSCKASGYTFTSYYIHWIKQTPGQGLEWVGVIYPGNDHISYNQKFQGKATLTADKSSTTAYMQLSSLTSEDSAVYYCAREVRLRYFDVWGQGTTVTVSS VL: EIVLTQSPGSLAVSPGERVTMSCKSSQSVFFSSSQKNYLAWYQQIPGQSPRLLIYWASTRESGVPDRFTGSGSGTDFTLTISSVQPEDLAIYYCHQYLSSRTFGQGTKLEIK
binds | MYT1234 (antibody, V domains shown, IgG; IMGN779 VH variant #22 (N61H)) VH: QVQLQQPGAEVVKPGASVKMSCKASGYTFTSYYIHWIKQTPGQGLEWVGVIYPGNDDISYHQKFQGKATLTADKSSTTAYMQLSSLTSEDSAVYYCAREVRLRYFDVWGQGTTVTVSS VL: EIVLTQSPGSLAVSPGERVTMSCKSSQSVFFSSSQKNYLAWYQQIPGQSPRLLIYWASTRESGVPDRFTGSGSGTDFTLTISSVQPEDLAIYYCHQYLSSRTFGQGTKLEIK
binds | MYT1225 (antibody, V domains shown, IgG; IMGN779 VH variant #13 (Y52H)) VH: QVQLQQPGAEVVKPGASVKMSCKASGYTFTSYYIHWIKQTPGQGLEWVGVIHPGNDDISYNQKFQGKATLTADKSSTTAYMQLSSLTSEDSAVYYCAREVRLRYFDVWGQGTTVTVSS VL: EIVLTQSPGSLAVSPGERVTMSCKSSQSVFFSSSQKNYLAWYQQIPGQSPRLLIYWASTRESGVPDRFTGSGSGTDFTLTISSVQPEDLAIYYCHQYLSSRTFGQGTKLEIK
binds | MYT1224 (antibody, V domains shown, IgG; IMGN779 VH variant #12 (I51H)) VH: QVQLQQPGAEVVKPGASVKMSCKASGYTFTSYYIHWIKQTPGQGLEWVGVHYPGNDDISYNQKFQGKATLTADKSSTTAYMQLSSLTSEDSAVYYCAREVRLRYFDVWGQGTTVTVSS VL: EIVLTQSPGSLAVSPGERVTMSCKSSQSVFFSSSQKNYLAWYQQIPGQSPRLLIYWASTRESGVPDRFTGSGSGTDFTLTISSVQPEDLAIYYCHQYLSSRTFGQGTKLEIK
binds | MYT1235 (antibody, V domains shown, IgG; IMGN779 VH variant #23 (Q62H)) VH: QVQLQQPGAEVVKPGASVKMSCKASGYTFTSYYIHWIKQTPGQGLEWVGVIYPGNDDISYNHKFQGKATLTADKSSTTAYMQLSSLTSEDSAVYYCAREVRLRYFDVWGQGTTVTVSS VL: EIVLTQSPGSLAVSPGERVTMSCKSSQSVFFSSSQKNYLAWYQQIPGQSPRLLIYWASTRESGVPDRFTGSGSGTDFTLTISSVQPEDLAIYYCHQYLSSRTFGQGTKLEIK
binds | MYT1227 (antibody, V domains shown, IgG; IMGN779 VH variant #15 (G54H)) VH: QVQLQQPGAEVVKPGASVKMSCKASGYTFTSYYIHWIKQTPGQGLEWVGVIYPHNDDISYNQKFQGKATLTADKSSTTAYMQLSSLTSEDSAVYYCAREVRLRYFDVWGQGTTVTVSS VL: EIVLTQSPGSLAVSPGERVTMSCKSSQSVFFSSSQKNYLAWYQQIPGQSPRLLIYWASTRESGVPDRFTGSGSGTDFTLTISSVQPEDLAIYYCHQYLSSRTFGQGTKLEIK
binds | MYT1219 (antibody, V domains shown, IgG; IMGN779 VH variant #7 (Y32H)) VH: QVQLQQPGAEVVKPGASVKMSCKASGYTFTSHYIHWIKQTPGQGLEWVGVIYPGNDDISYNQKFQGKATLTADKSSTTAYMQLSSLTSEDSAVYYCAREVRLRYFDVWGQGTTVTVSS VL: EIVLTQSPGSLAVSPGERVTMSCKSSQSVFFSSSQKNYLAWYQQIPGQSPRLLIYWASTRESGVPDRFTGSGSGTDFTLTISSVQPEDLAIYYCHQYLSSRTFGQGTKLEIK
binds | MYT1238 (antibody, V domains shown, IgG; IMGN779 VH variant #26 (Q65H)) VH: QVQLQQPGAEVVKPGASVKMSCKASGYTFTSYYIHWIKQTPGQGLEWVGVIYPGNDDISYNQKFHGKATLTADKSSTTAYMQLSSLTSEDSAVYYCAREVRLRYFDVWGQGTTVTVSS VL: EIVLTQSPGSLAVSPGERVTMSCKSSQSVFFSSSQKNYLAWYQQIPGQSPRLLIYWASTRESGVPDRFTGSGSGTDFTLTISSVQPEDLAIYYCHQYLSSRTFGQGTKLEIK
binds | MYT1228 (antibody, V domains shown, IgG; IMGN779 VH variant #16 (N55H)) VH: QVQLQQPGAEVVKPGASVKMSCKASGYTFTSYYIHWIKQTPGQGLEWVGVIYPGHDDISYNQKFQGKATLTADKSSTTAYMQLSSLTSEDSAVYYCAREVRLRYFDVWGQGTTVTVSS VL: EIVLTQSPGSLAVSPGERVTMSCKSSQSVFFSSSQKNYLAWYQQIPGQSPRLLIYWASTRESGVPDRFTGSGSGTDFTLTISSVQPEDLAIYYCHQYLSSRTFGQGTKLEIK
binds | MYT1231 (antibody, V domains shown, IgG; IMGN779 VH variant #19 (I58H)) VH: QVQLQQPGAEVVKPGASVKMSCKASGYTFTSYYIHWIKQTPGQGLEWVGVIYPGNDDHSYNQKFQGKATLTADKSSTTAYMQLSSLTSEDSAVYYCAREVRLRYFDVWGQGTTVTVSS VL: EIVLTQSPGSLAVSPGERVTMSCKSSQSVFFSSSQKNYLAWYQQIPGQSPRLLIYWASTRESGVPDRFTGSGSGTDFTLTISSVQPEDLAIYYCHQYLSSRTFGQGTKLEIK
